Measurements reported in paper PMC4223631 (Developmental cell, 2014).

Biological target: rabbit muscle actin (filaments: ADP-F-actin or ADP•BeFx-F-actin) (rabbit, UniProt P68135 1-377)
Experiment: co-sedimentation

B1: cofilin-2 (mouse, recombinant wild type) (natural protein)
chain: MASGVTVNDEVIKVFNDMKVRKSSTQEEIKKRKKAVLFCLSDDKRQIIVEEAKQILVGDIGDTVEDPYTSFVKLLPLNDCRYALYDATYETKESKKEDLVFIFWAPESAPLKSKMIYASSKDAIKKKFTGIKHEWQVNGLDDIKDRSTLGEKLGGSVVVSLEGKPL
KD of a small fraction (~20%) of the cofilin: ~1 µM | KD of the majority of the cofilin: ~5 µM
